US20140120098A1 (DANSK UNIVERSITET, published 2014)
Substitutions are numbered along the chain they refer to. Names may count otherwise. One block for each binder: values may come before it.

Target: T1, acetylated BSA (bovine, UniProt P02769 25-607, acetylated (N-acetyl groups; positions not stated); 125I-labelled or Alexa Fluor 488 C5 maleimide-labelled in the uptake experiments)
T1 construct: also called NAc-BSA; N-acetyl bovine serum albumin
Experiment: ELISA, plates coated with acetylated BSA, 5 mM CaCl2

T1 sequence (P02769 25-607 limits assumed): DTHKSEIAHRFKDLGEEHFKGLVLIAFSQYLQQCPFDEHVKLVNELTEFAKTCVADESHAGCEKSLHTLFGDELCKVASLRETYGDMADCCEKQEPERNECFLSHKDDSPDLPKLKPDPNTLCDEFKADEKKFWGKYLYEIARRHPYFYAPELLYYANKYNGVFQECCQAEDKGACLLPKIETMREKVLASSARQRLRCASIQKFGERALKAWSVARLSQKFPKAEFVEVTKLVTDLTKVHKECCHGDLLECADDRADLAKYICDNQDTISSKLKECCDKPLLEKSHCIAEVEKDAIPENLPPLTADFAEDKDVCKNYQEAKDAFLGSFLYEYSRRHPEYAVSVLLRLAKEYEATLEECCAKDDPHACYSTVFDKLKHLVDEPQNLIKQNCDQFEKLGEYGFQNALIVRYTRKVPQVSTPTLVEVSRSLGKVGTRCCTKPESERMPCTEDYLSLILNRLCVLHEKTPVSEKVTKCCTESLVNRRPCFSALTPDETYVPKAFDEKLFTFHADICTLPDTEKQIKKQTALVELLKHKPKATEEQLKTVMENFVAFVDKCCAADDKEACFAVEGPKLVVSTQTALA

binding result: no binding
B1: FIBCD1 FReD A432V (receptor)
chain: ATGSRPRDCLDVLLSGQQDDGVYSVFPTHYPAGFQVYCDMRTDGGGWTVFQRREDGSVNFFRGWDAYRDGFGRLTGEHWLGLKRIHALTTQAAYELHVDLEDFENGTAYARYGSFGVGLFSVDPEEDGYPLTVADYSGTAGDSLLKHSGMRFTTKDRDSDHSENNCAAFYRGAWWYRNCHTSNLNGQYLRGAHASYVDGVEWSSWTGWQYSLKFSEMKIRPVREDR

binding result: no binding
B2: FIBCD1 FReD H415G (receptor)
chain: B1 chain with H180G, V197A
